The target of assay [1] is TSHR (full length) coated on tubes (human) (UniProt P16473). Kind of assay: inhibition of 125I-K1-18 Fab (competitor) binding to TSHR coated tubes; negative control 100 µg/mL in assay buffer.
Assay [2] addresses thyroid stimulating hormone receptor (TSHR), full length human TSHR (human) (UniProt P16473). Kind of assay: TSH-biotin competition ELISA, TSHR coated wells; negative control, 0.1 µg/mL in HBD serum.
In assay [3] the target is human TSH receptor (full length) coated on ELISA plate wells (human) (UniProt P16473). Kind of assay: TSH-biotin binding inhibition ELISA, TSHR coated wells; 0.1 µg/mL in assay buffer + 100 µg/mL 5B3 IgG; negative control MAb.
In assay [4] the target is TSH receptor (TSHR), full length human, coated on tubes (human) (UniProt P16473). Kind of assay: inhibition of 125I-K1-18 IgG binding to TSHR coated tubes; competitor 125I-K1-18 IgG; negative control sample at 10 µg/mL in assay buffer.
The target in assay [5] is TSH receptor (TSHR) coated on tubes (human) (UniProt P16473). Kind of assay: inhibition of 125I-K1-70 IgG binding to TSHR coated tubes; negative control 0.01 µg/mL in assay buffer.
Assay [6] addresses TSHR (full length) coated on tubes (human) (UniProt P16473). Kind of assay: inhibition of 125I-K1-18 Fab (competitor) binding to TSHR coated tubes; negative control 1 µg/mL in assay buffer.
Assay [7] has as its target human TSH receptor (full length) coated on ELISA plate wells (human) (UniProt P16473). Kind of assay: TSH-biotin binding inhibition ELISA, TSHR coated wells; 10 µg/mL in assay buffer; negative control MAb.
The target of assay [8] is TSH receptor (TSHR), full length human, coated on tubes (human) (UniProt P16473). Kind of assay: inhibition of 125I-TSH binding to TSHR coated tubes; 10 µg/mL, diluted in assay buffer.
The target in assay [9] is human TSH receptor (full length) coated on ELISA plate wells (human) (UniProt P16473). Kind of assay: TSH-biotin binding inhibition ELISA, TSHR coated wells; 1 µg/mL in HBD serum pool; negative control MAb.
The target of assay [10] is TSHR (thyroid stimulating hormone receptor), full length human (human) (UniProt P16473). Kind of assay: negative control; competitor ^125I-K1-70 IgG, TSHR coated tubes; 100 µg/mL in assay buffer.
For assay [11], the target named is TSH receptor (TSHR), full length human, coated on tubes (human) (UniProt P16473). Kind of assay: inhibition of 125I-TSH binding to TSHR coated tubes; 100 µg/mL, diluted in assay buffer.
In assay [12] the target is TSH receptor (full length human TSHR) (human) (UniProt P16473). Kind of assay: competition ELISA: inhibition of M22 Fab-peroxidase (competitor) binding to TSHR coated wells; negative control at 100 µg/mL diluted in assay buffer.
Assay [13] has as its target TSH receptor (TSHR), full length human, coated on tubes (human) (UniProt P16473). Kind of assay: inhibition of 125I-K1-18 IgG binding to TSHR coated tubes; competitor 125I-K1-18 IgG; sample at 1 µg/mL in HBD serum.
The target is the same in assay [14]. Kind of assay: inhibition of 125I-K1-18 IgG binding to TSHR coated tubes; competitor 125I-K1-18 IgG; sample at 0.1 µg/mL in HBD serum.
In assay [15] the target is TSH receptor (full length human TSHR) (human) (UniProt P16473). Kind of assay: competition ELISA: inhibition of M22 Fab-peroxidase (competitor) binding to TSHR coated wells; test sample at 0.01 µg/mL diluted in assay buffer.
For assay [16], the target named is TSHR (full length) coated on tubes (human) (UniProt P16473). Kind of assay: inhibition of 125I-K1-18 Fab (competitor) binding to TSHR coated tubes; test sample 10 µg/mL in HBD serum.
Assay [17] concerns the target thyroid stimulating hormone receptor (TSHR), full length human TSHR (human) (UniProt P16473). Kind of assay: TSH-biotin competition ELISA, TSHR coated wells; 0.01 µg/mL in HBD serum.
The target in assay [18] is thyroid stimulating hormone receptor (full length human TSHR) (human) (UniProt P16473). Kind of assay: ELISA: inhibition of M22 Fab-peroxidase (competitor) binding to TSHR coated wells; 10 µg/mL, diluted in assay buffer.
Assay [19] addresses human TSH receptor (full length) coated on ELISA plate wells (human) (UniProt P16473). Kind of assay: TSH-biotin binding inhibition ELISA, TSHR coated wells; 1 µg/mL in assay buffer + 100 µg/mL 5B3 IgG.
In assay [20] the target is human thyroid stimulating hormone receptor (TSHR), full length (human) (UniProt P16473). Kind of assay: 125I-K1-18 Fab competition, TSHR coated tubes; 100 µg/mL in assay buffer.
Assay [21] deals with thyroid stimulating hormone receptor (TSHR), full length, coated on tubes (human) (UniProt P16473). Kind of assay: inhibition of 125I-TSH binding, TSHR coated tubes; antibody 1 µg/mL in HBD serum pool.
The target in assay [22] is human TSH receptor (full length) coated on ELISA plate wells (human) (UniProt P16473). Kind of assay: TSH-biotin binding inhibition ELISA, TSHR coated wells; 0.1 µg/mL in HBD serum pool.
For assay [23], the target named is thyroid stimulating hormone receptor (full length human TSHR) (human) (UniProt P16473). Kind of assay: ELISA, inhibition of TSH-biotin binding to TSHR coated wells; 10 µg/mL, diluted in assay buffer.
Assay [24] has as its target TSH receptor (TSHR), full length human, coated on tubes (human) (UniProt P16473). Kind of assay: inhibition of 125I-TSH binding to TSHR coated tubes; 0.01 µg/mL, diluted in HBD serum pool.
For assay [25] the target is unchanged. Kind of assay: inhibition of 125I-K1-18 IgG (competitor) binding to TSHR coated tubes; test sample at 0.01 µg/mL in HBD serum pool.
The target in assay [26] is TSH receptor (TSHR) coated on tubes (human) (UniProt P16473). Kind of assay: inhibition of 125I-K1-70 IgG binding to TSHR coated tubes; sample 1 µg/mL in HBD serum pool.
The target in assay [27] is TSH receptor (TSHR), full length human, coated on tubes (human) (UniProt P16473). Kind of assay: inhibition of 125I-TSH binding to TSHR coated tubes; 1 µg/mL, diluted in HBD serum pool.

Take 5B3 IgG (antibody): the Inhibition of binding (%) in [1] was 6.3%; in assay [2], -1.2%; in assay [4], -2.7%; in [5] it was 3.2%; in assay [6] it was -0.9%; in [8], -5.7%. The figures for the Inhibition of binding (%) in assay [10], in assay [11] and in assay [12] were 1.3%, 22.4% and 8.1%, respectively. Further, the % inhibition of TSH-biotin binding was -6.4% in [3], 0.9% in assay [7] and 8% in assay [9].

As for 9D33 IgG (antibody), the Inhibition of binding (%) in assay [13] turned out to be 62.1%; in assay [14] it was 33.8%; in assay [15], 14.8%; in assay [16], 73.9%; in [17], 10.1%.

B1: 5C9 IgG (antibody, from another filing, V domains shown)
VH: EVQLVESGGGLIQPGGSLRLSCAASGFTVSSNYMSWVRQAPGKGLEWVSVTYSGGSTSYADSVKGRFTISRDNSKNTLYLQMNSLRAEDTAVYYCARGGRYCSSISCYARSGCDYWGQGTLVTVSS
VL: AIQMTQSPSSLSASVGDRVTITCRASQSISNYLNWYQQKPGKAPKLLIYAASSLQSGVPSRFSGSGSGTDFTLTISSLQPEDFATYYCQQSYSSPSTTFGQGTKLEIK
As to B1, the Inhibition of binding (%) in assay [18] is 13.2%; in [20] it was 85.2%; in assay [21], 19.7%; in assay [23], 37.8%; in [24] it was -5.5%; in [25] it was -1.8%. The figures for the Inhibition of binding (%) in assay [26] and in assay [27] were 15.4% and 24.8%, respectively. In addition, the % inhibition of TSH-biotin binding in assay [19] came to 46.7%; in assay [22] it was 21.6%.
